Assay results as given in article PMC10842940, “Establishment of dsDNA-dsDNA interactions by the condensin complex” (Molecular cell, 2023).
Each block holds one molecule with its values, some of them ahead of it.

Tests used:
[1] = test system: condensin pentamer;condensin pentamer (Schizosaccharomyces pombe;Schizosaccharomyces pombe); experiment: second DNA capture by condensin preloaded on bead-bound DIG-5kb-DIG; conditions: binding buffer, pH and temperature not given in material; Mg2+ and ATP; washes at 500 mM NaCl (topological loading) or 100 mM NaCl (gripping state)
[2] = test system: condensin pentamer (Schizosaccharomyces pombe); experiment: condensin immunoprecipitation, 500 mM NaCl wash; conditions: Mg2+, ATP, binding buffer, pH and temperature not given in material, washes at 500 mM NaCl (topological loading) or 100 mM NaCl (gripping state)
[3] = molecular target: T1, Cnd1^Ycs4 (fission yeast condensin HEAT-repeat subunit) (S. pombe, UniProt O94679 1-1158); experiment: cross-linking; sulfo-SDA cross-link mass spectrometry (CLMS) of the purified five-subunit condensin complex with equimolar 124 bp linear dsDNA and 0.5 mM ADP·BeF3 (DNA-gripping state); CL buffer, 30°C 30 min, UV 365 nm on ice; 1% FDR at residue-pair level; conditions: both partners purified
T1 construct: Cnd1 (Ycs4), S. pombe condensin HEAT-repeat subunit; cDNA cloned into an S. cerevisiae expression vector; source: S. cerevisiae (w303, pep4 deleted), co-overexpressed with the other four condensin subunits from GAL1-10 promoters; in cell extract, and purified as the complex (IgG-agarose, 3C protease elution, heparin, Superose 6)
T1 sequence (looked up): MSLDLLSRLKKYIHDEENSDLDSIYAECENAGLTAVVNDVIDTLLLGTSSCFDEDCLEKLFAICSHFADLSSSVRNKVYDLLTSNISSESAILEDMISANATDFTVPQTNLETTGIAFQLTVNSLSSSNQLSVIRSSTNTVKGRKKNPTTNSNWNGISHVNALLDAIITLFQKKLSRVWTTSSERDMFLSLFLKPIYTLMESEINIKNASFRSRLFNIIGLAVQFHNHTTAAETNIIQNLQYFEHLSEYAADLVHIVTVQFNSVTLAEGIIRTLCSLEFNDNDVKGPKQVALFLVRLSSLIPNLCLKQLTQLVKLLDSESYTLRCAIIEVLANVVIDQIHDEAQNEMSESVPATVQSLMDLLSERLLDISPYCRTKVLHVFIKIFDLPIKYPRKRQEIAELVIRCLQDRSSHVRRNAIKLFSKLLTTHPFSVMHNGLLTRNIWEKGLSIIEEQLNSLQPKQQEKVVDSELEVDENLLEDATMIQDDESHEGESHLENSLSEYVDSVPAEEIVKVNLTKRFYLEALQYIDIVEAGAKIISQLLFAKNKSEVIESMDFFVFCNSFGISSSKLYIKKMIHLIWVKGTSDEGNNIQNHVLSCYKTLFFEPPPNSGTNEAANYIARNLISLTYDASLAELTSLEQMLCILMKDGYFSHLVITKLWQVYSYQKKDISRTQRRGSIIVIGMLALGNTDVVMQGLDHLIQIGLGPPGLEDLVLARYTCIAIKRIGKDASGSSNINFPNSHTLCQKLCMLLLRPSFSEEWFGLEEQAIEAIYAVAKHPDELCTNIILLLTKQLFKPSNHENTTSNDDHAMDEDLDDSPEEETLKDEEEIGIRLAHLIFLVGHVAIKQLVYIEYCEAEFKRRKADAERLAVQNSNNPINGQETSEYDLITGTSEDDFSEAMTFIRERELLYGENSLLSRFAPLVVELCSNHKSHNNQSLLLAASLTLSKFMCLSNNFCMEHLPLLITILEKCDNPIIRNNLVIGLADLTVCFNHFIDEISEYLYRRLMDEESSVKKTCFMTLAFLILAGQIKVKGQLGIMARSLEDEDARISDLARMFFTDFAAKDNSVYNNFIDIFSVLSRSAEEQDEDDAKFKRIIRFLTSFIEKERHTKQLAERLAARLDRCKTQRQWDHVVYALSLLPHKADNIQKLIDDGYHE

Molecule: supercoiled pBlueScript KSII(+)
binding signal (% of second dsDNA captured) [1]: 10 | binding signal (% of input DNA recovered) [2]: > 40

binding result [3]: binds
B1: Cnd2^Brn1 (fission yeast condensin kleisin subunit) (natural protein, S. pombe, UniProt Q9Y7R3 1-742, looked up)
chain: MKRASLGGHAPVSLPSLNDDALEKKRAKENSRKQRELRRSSALHSITPRRESLNNSSPFNSSHQVPVLSNFEEWIKLATDNKINSTNTWNFALIDYFHDMSLLRDGEDINFQKASCTLDGCVKIYTSRIDSVATETGKLLSGLANDSKVLQQTEEGEDAENDDEDLQKKKERKRAQRSVKTLVKDFESIRAKKFELECSFDPLFKKMCADFDEDGAKGLLMNHLCVDQHGRIVFDSSDTVIKDLENKDVEAESQEAVVAAPIESHDTEMTNVHDNISRETLNGIYKCYFTDIDQLTICPSLQGFEFDSKGNLDVSLLKSLSDEVNMITTTSLVDNTMEKTDADAASLSSDSDGEEGHIVHALEEMAYDEENPYVDVVPKAMDESENPDFGVDTEVNMADGSTMNENYSIISTAAANGVYEYFDKSMKKNWAGPEHWRIQALRKNINNASTVFNSSNTAESSDNVSRSLSSTERKKRRELDNAIDFLQEVDVEALFTPATSSLKLPKSHWKRHNRCLLPDDYQYDSKRLLQLFLKPKMSVLPNADGEGQLQLNKALDDENDLDGIQPHGFDSDGSDNVDEGIPPYGFGDSDSPKQTPLLTPPSSSGFGDNLLLTARLAKPDMLNYAKRAKKVDVRVLKEKLWKCLDLENTIKENSINSHIEGSEMESEETNMPVKSFFSTVNQLEETYEKKELKDISTSFAFICVLHLANEHNLELTSNEDFSDVFIRPGPNLTTLEALENDV
notes: Cnd2 (Brn1), S. pombe condensin kleisin subunit; cDNA cloned into an S. cerevisiae expression vector; The 2xProtA tag was still on the chain while the complex was captured on rabbit IgG-agarose (assay a1); also called Cnd2-2xProtA; source: S. cerevisiae (w303, pep4 deleted), co-overexpressed with the other four condensin subunits from GAL1-10 promoters; in cell extract, and purified as the …
